In PMC9860181 (Plant Communications, 2022):
Where two headings read alike, the source gives them in different places. Each block holds one binder with its values, some of them ahead of it.

Key:
[1] = target: T1, UVR8^W285A (residues 12–421) (A. thaliana, UniProt Q9FN03 12-421, W285A); assay: crystal structure
T1 sequence: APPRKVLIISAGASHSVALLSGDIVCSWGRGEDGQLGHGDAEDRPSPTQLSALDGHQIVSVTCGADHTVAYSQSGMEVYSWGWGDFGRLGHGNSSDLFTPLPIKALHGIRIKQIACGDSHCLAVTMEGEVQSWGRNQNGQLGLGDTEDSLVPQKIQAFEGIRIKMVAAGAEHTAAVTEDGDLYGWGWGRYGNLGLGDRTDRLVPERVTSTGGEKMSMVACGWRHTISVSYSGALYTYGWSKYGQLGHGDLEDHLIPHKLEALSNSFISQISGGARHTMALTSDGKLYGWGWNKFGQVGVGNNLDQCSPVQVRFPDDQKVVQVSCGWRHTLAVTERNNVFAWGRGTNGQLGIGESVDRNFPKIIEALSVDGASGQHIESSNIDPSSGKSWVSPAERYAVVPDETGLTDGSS

UVR8^W285A-Strep II [2] = target: T2, UVR8^W285A-Strep II (A. thaliana, UniProt Q9FN03 1-440, W285A); assay: pull-down
T2 sequence: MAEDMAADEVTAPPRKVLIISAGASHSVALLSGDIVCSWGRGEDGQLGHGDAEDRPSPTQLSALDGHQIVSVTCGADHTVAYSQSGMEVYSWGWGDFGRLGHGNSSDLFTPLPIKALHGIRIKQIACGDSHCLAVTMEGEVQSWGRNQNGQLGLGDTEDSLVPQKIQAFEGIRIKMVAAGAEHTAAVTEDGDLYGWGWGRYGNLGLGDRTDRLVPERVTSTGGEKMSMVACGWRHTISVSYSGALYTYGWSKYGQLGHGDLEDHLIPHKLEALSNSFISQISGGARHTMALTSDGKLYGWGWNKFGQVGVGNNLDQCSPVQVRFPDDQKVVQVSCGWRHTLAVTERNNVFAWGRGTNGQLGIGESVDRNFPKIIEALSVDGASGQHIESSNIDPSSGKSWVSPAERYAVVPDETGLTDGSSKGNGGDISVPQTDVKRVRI

UVR8^W285A-Strep II [3] = target: T2, UVR8^W285A-Strep II; assay: pull-down; remark: listed apart in the source
[4] = target: the molecule itself; assay: SDS-PAGE of dimer and monomer

binding result [1]: binds
B1: RUP2 (residues 21–366) (domain or fragment)
chain: RYEWDLSLSTVVSSSSSSASDVIGAIEFDPTDNIVATAGISRKIRFYGLPSLLRNNAVSGTGVSFVDQATACEYYICTPAKLSSLRWRPGSGGRVIGSGDYDGVVMEYDLEKRTPVFERDEHGGRRVWSVDYTRHGGASTVGASGSDDGTMQVWDPRCPPEESVGVVRPAGICRSAVCCVEFDPSGGPAVAVGCADRKGYVYDIRKLVDPALTLQGHTKTVSYVRFLDGGTVVTAGTDGCLKLWSVEDGRVIRTYEGHVNNRNFVGLSVWRNGALFGCGSENNRVFVYDRRWGKPVWVDGFEPVGMNSGSDKRFVSSVCWRQSGVDQCTLVAGGSDGVLQVYVGKR

binding result (UVR8^W285A-Strep II [2]): binds
B2: REPRESSOR OF UV-B PHOTOMORPHOGENESIS 2 (RUP2), C-terminal 3×Flag (natural protein)
chain: MNTLHPHKQQQEQAQQQEEARYEWDLSLSTVVSSSSSSASDVIGAIEFDPTDNIVATAGISRKIRFYGLPSLLRNNAVSGTGVSFVDQATACEYYICTPAKLSSLRWRPGSGGRVIGSGDYDGVVMEYDLEKRTPVFERDEHGGRRVWSVDYTRHGGASTVGASGSDDGTMQVWDPRCPPEESVGVVRPAGICRSAVCCVEFDPSGGPAVAVGCADRKGYVYDIRKLVDPALTLQGHTKTVSYVRFLDGGTVVTAGTDGCLKLWSVEDGRVIRTYEGHVNNRNFVGLSVWRNGALFGCGSENNRVFVYDRRWGKPVWVDGFEPVGMNSGSDKRFVSSVCWRQSGVDQCTLVAGGSDGVLQVYVGKRKP

binding result (UVR8^W285A-Strep II [3]): binds
B3: REPRESSOR OF UV-B PHOTOMORPHOGENESIS 1 (RUP1), C-terminal 3×Flag (natural protein)
chain: MEALFCSEIPNNNIRSSINDLSSSSSYTWPMIMTSSSSSSSSPTIMNIENIPRCDWDLSLSAVVSSASTGSDAIGAIEFDPTGEIIATGGIARKIRSYRLSSLLESRDDHVTASESYICTPAKLSSLKWRPDFSGRVIGSGDYDGVVTEYDVEKQVPVSERDEHGGRRIWSVDYTLYNGSLIGASGSDDGTVQMWDPRNGGTLEETVRPGGGAAICSVEFDPFGGSSIAVGCADRNAYVYDIRRLVDPLIVLDGHTKTVTYARFMDSHTIVTGSTDGSLKQWDIDNGRRVVRTYRGHVNSRNFVGLSVWRHGGLVVSGSENNQVFVYDKRWEEPVWVCGLGHTNRFGSDRRFVSSVCLRQVDEDWCTLVAGGSDGALEIFSGKQS

B4: UVR8^N396 (residues 1–396) (domain or fragment)
chain: MAEDMAADEVTAPPRKVLIISAGASHSVALLSGDIVCSWGRGEDGQLGHGDAEDRPSPTQLSALDGHQIVSVTCGADHTVAYSQSGMEVYSWGWGDFGRLGHGNSSDLFTPLPIKALHGIRIKQIACGDSHCLAVTMEGEVQSWGRNQNGQLGLGDTEDSLVPQKIQAFEGIRIKMVAAGAEHTAAVTEDGDLYGWGWGRYGNLGLGDRTDRLVPERVTSTGGEKMSMVACGWRHTISVSYSGALYTYGWSKYGQLGHGDLEDHLIPHKLEALSNSFISQISGGWRHTMALTSDGKLYGWGWNKFGQVGVGNNLDQCSPVQVRFPDDQKVVQVSCGWRHTLAVTERNNVFAWGRGTNGQLGIGESVDRNFPKIIEALSVDGASGQHIESSNIDPSS
binding result [4]: binds
